This note sets out measurements from US20210380648, “DNA BINDING PROTEINS AND USES THEREOF” (Klogenix LLC, published 2021).

In one data set the target is ZFP52 (VP64). In words: cell_activity; Klotho ELISA in HK-2. As to conditions: tags: NLS, VP64, HA. On the procedure: (§1) ELISA components were purchased from IBL and assays were performed according to the manufacturers instructions.
(§2) Klotho is largely expressed in the brain and kidney, and so further investigations were made using cell lines derived from those organs. The ZFPs were transfected into HK-2 cells and Klotho protein levels were measured.
Background: ELISA stands for enzyme-linked immunosorbent assay.

Another data set deals with ZFP52_VPR. In words: cell_activity; Klotho ELISA in HK-2. As to conditions: tags: NLS, VP64-p65-Rta, HA, V5, His. The method, then:
as §1, §2

The target in data set [1] is ZFP3_Egr1_site3_antisense (VP64). Briefly: cell_activity; Klotho protein ELISA in HK-2; also active in HEK293 4 kb promoter reporter. As to conditions: tags: NLS, VP64, HA. On the procedure:
as §1, §2

Data set [2] deals with ZFP3_Egr1_site3_antisense_VPR. In words: cell_activity; Klotho ELISA in HK-2. The settings on record: tags: NLS, VP64-p65-Rta, HA, V5, His. The method, then: as §1, §2
ZFP3_Egr1_site3_antisense_VPR, sequence (chain, as listed by the source): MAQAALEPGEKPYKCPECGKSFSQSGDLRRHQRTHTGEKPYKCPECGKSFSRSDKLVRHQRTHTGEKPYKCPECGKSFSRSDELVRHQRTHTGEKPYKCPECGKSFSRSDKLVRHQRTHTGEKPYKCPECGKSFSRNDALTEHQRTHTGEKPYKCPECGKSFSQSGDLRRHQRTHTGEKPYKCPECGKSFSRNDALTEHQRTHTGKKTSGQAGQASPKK

ZFP52_VPR, sequence (chain, as listed by the source): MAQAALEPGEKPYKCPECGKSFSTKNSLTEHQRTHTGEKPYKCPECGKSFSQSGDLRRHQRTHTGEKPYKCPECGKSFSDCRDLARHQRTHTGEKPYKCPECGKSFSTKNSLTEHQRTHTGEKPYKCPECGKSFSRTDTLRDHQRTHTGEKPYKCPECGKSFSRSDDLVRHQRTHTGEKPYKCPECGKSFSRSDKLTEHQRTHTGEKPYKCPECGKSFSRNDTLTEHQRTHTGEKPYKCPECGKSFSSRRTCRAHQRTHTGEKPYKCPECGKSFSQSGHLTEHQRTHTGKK

B1: ZFP52 target (dsDNA)
DNA 1: CGACGTCCGCGGGCGACGCCTGCCGCACCT
DNA 2: AGGTGCGGCAGGCGTCGCCCGCGGACGTCG
Turning to B1, the activity in the data set with ZFP52 (VP64) was about 2 fold; with ZFP52_VPR, about 5 fold.

B2: ZFP3_Egr1_site3 target (dsDNA)
DNA 1: CTGGCACTGGGGGTGGGGGCA
DNA 2: TGCCCCCACCCCCAGTGCCAG
In the case of B2, the activity in data set [1] and in data set [2] was about 3 fold throughout.
